Results taken from PMC7523099.

Key:
[1] = molecular target: SARS-CoV-2 RBD-5GS-1TD0 (SARS-CoV-2 | not stated) (UniProt P0DTC2); experiment: SDS-PAGE
[2] = molecular target: SARS-CoV-1 RBD-5GS-1TD0 (SARS-CoV-1 | not stated); experiment: SDS-PAGE

Substance | stoichiometry N [1] | stoichiometry N [2]
SARS-CoV-2 RBD-5GS-1TD0 (from UniProt P0DTC2 330-532) (domain or fragment) | 3 | 
SARS-CoV-1 RBD-5GS-1TD0 (domain or fragment) |  | 3
